Here are results for 41 sequences from the nanobody polyreactivity screen of Harvey et al. (2022).

The series is described as follows: yeast display, Sf9 membrane polyspecificity reagent, FACS + sequencing; frameworks hold sequencing errors. A digest of the protocol:
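Galactose-induced (36–48 hours) yeast carrying a synthetic nanobody display library were exposed to 10% biotinylated, detergent-solubilized Sf9 membrane reagent at 4 °C for 1 hour. FACS followed streptavidin microbead enrichment, using low and high (top ~1%) gates for expression (anti-HA) and reagent binding (streptavidin). Colony PCR, MiSeq 2 × 250 sequencing and CDR-length filtering followed. Labels for polyreactivity reflect the gate of origin.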
Take “QVQLVESGGGLVQAGGSLRLSCAASGISFTYNTMGWSRQAPGKESELVAAITSGGGTNYADSVKGRFTISRDNAKNTVYLQMNSLKPEDTAVYYCAKDPGTVGPIWYDYWGQGTQVTVSS”: the “polyreactivity (PSR sort gate)” value was “low polyreactivity”. Regarding “QVQLVESGGGLVQAGGSLRLSCAASGISFWDYAMGWYRQAPGKERELVAAISSGGSTYYADSVKGRFTISRDNAKNTVYLQMNSLKPEDTAVFYCNAEQRYYRKVKGNYWGQGTQVSVSS”, the “polyreactivity (PSR sort gate)” value is “high polyreactivity”. As to “QVQLVESGGGLVQAGGSLRLSCAASGISFYLYAMGWYRQAPGKERELVAAISWRGDSTYYADSVKGRFTISRDNAKNTVYLQMNSLKPEDTAVYYCAADLLPLYDYWGQGTQVTGSS”, the “polyreactivity (PSR sort gate)” value is “high polyreactivity”. As to “QVQLVESGGGLVQAGGSLRLSCAASGISSWYYAMGWYRQAPGKERELVAAITSDGRTNYADSVKGRFTISRDNAKNTVYLQMKSLKPEDTAVYYCAAARRVGVSHYRYGYWGHGTQVTVSS”, the “polyreactivity (PSR sort gate)” value is reported as “high polyreactivity”. Take “QVQLVESGGGLVQAGGSLRLSCAASGITFAGYARGWYRQAPGKERELVAAISGSGGSTYYADSVKGRFTISRDNAKNTVYLQMNSLKPEDTAVYYCNADVVPQYYSWGQGTQVTVSS”: the “polyreactivity (PSR sort gate)” value is “low polyreactivity”. In the case of “QVQLVESGGGLVQAGGSLRLSCAASGITFAQYAMGWYRQAPGKERELVAGITRSGGSTHYADSVKGRFTISRDNAKNSVYLQMNSLKPEDTAVYYCAKGLSTGRAYRGYDYWGQGTQVTVSS”, the “polyreactivity (PSR sort gate)” value is “high polyreactivity”. With “QVQLVESGGGLVQAGGSLRLSCAASGITFASYAMGWYRQAPGKERELVAAISRTGGSTYYADSVKGRFTISRDNAKNTVYLQMNSLKPEDTAVYYCAARIPYTGYDYWGQGTQVTVSS”, the “polyreactivity (PSR sort gate)” value is recorded as “high polyreactivity”. Consider “QVQLVESGGGLVQAGGSLRLSCAASGITFATNAMGWYRQAPGKERELVAGITSGGSTYYADSVKGRFTISRDNAKNTVYLQMNSLKPEDTAVYYCNTAVKVERDYWGQGTQVTVSS”, for which the “polyreactivity (PSR sort gate)” value is given as “low polyreactivity”. In the case of “QVQLVESGGGLVQAGGSLRLSCAASGITFAWYAMGWYRQAPGKERELVAAIDDRGGSTYYADSVKGRFTISRDNAKNTVYFQMNSLKPEDTAVYYCNADTKSYEPYRLDYWGQGTQVTVSS”, the “polyreactivity (PSR sort gate)” value was “low polyreactivity”. In the case of “QVQLVESGGGLVQAGGSLRLSCAASGITFAYNAMGWYRQAPGKERELVAAITTGGDTYYADSVKGRFTISRDNAKNTVYLQMNSLKPEDTAVYYCAATPTYWYLWSPYDYWGQGTQVTVSS” it was “low polyreactivity”. As to “QVQLVESGGGLVQAGGSLRLSCAASGITFAYNVMGWYRQAPGKERELVAAISWTGSSTYYADSVKGRFTISRDNAKNTVYLQMNSLKQEDTAVYYCAARQRYRYDYWGQGTQVTVSS”, the “polyreactivity (PSR sort gate)” value was “high polyreactivity”. Turning to “QVQLVESGGGLVQAGGSLRLSCAASGITFAYYAMGRSRQAPGKERELVAAIRWSGGDTYYADSVKGRFTISRDNAKNTVYLQMNSLKPEDTAVYYCAADTTWGYDYWGQGTQVTVSS”, the “polyreactivity (PSR sort gate)” value is reported as “low polyreactivity”.

For “QVQLVESGGGLVQAGGSLRLSCAASGITFAYYVMGWYRQAPGKERELVAAITRSGDITSYADSVKGRFTISRDNAKNTVYLQMNSMKPEDTAVYYCNARRGYQSRRYNYWGQGTQVSVSS”, the “polyreactivity (PSR sort gate)” value is “high polyreactivity”. As for “QVQLVESGGGLVQAGGSLRLSCAASGITFDHYTMGWYRHAPGKEREFVADITGSGVRTYYADSVKGRFTISRDNAKNTVYLQMNCLKAEDNAVYYCAKRRTLYYSGKLGYWGQGTQVTVSS”, the “polyreactivity (PSR sort gate)” value is recorded as “high polyreactivity”. Take “QVQLVESGGGLVQAGGSLRLSCAASGITFDKNTMGWYRQEPGKVRELVAAISARGGSTYYADSVKGRFTISRDNSKNTVYLQMNSLKPEDTAVYYCAARSGYGPYRMDYWGQGTQVTVSS”: the “polyreactivity (PSR sort gate)” value is reported as “high polyreactivity”. “QVQLVESGGGLVQAGGSLRLSCAASGITFDKYAMGWYRQAPGKERQLVAAISGSDGSTYYADSVKGRFTITRDNAKNTVYLQMNSLKPEDTAVYYCAAESEYAGTYEYDYWGQGSQVTVSS”: the “polyreactivity (PSR sort gate)” value is “low polyreactivity”. As for “QVQLVESGGGLVQAGGSLRLSCAASGITFDRYAMGWYRQAPGKERELVAAITSGGRTYYADSVKGRFTISRDNAKNTVYLQMNSLKPEDTAVYYCNATRGQYVGRYYYWGQGSQVTVSS”, the “polyreactivity (PSR sort gate)” value is listed as “high polyreactivity”.

On to “QVQLVESGGGLVQAGGSLRLSCAASGITFDSNAMGWYRQAPGKERELVAAISASGGRTYYADSVKGRFTISRDNAKNTVYLQMNSLKPEDTAVYYCNARYYVKHPLPYDYWGQGTQVTVSS”, for which the “polyreactivity (PSR sort gate)” value is “low polyreactivity”.

In the case of “QVQLVESGGGLVQAGGSLRLSCAASGITFDSYAMGWYRQAPGKERELVAAISYSGGSTYYADSVKGRFTISRDNAKNTVYLQMNSLKPDDTAVYYCAAASDDDYDYWGQGTKVTVSS”, the “polyreactivity (PSR sort gate)” value is listed as “low polyreactivity”. In the case of “QVQLVESGGGLVQAGGSLRLSCAASGITFDTYDMGWYRQAPGKERELVAAISSSGGSTYYADSVKGRFTISRDNAKNTVYLQMNSLKPEDTAVYYCAAVLLDDDYSYYYWGQGTQVTVSS” it was “low polyreactivity”; in that of “QVQLVESGGGLVQAGGSLRLSCAASGITFDVNAMGWYRQAPGKERELVAAITAGGNTYYADSVKGRFTISRDNAKNTVYLQLNSLKPEVTAVYYCATQSYYGFYDYDYWGQGTQVTVSS”, “low polyreactivity”. For “QVQLVESGGGLVQAGGSLRLSCAASGITFDVYAMGWYRQAPGKERELVAAISGSGGSTYYADSVKGRFTISRDNAKNTVYLQMNSLKPEDTAVYYCAASGPDGQYLWYDYWGQGTQVTVSS”, the “polyreactivity (PSR sort gate)” value is listed as “high polyreactivity”.

Turning to “QVQLVESGGGLVQAGGSLRLSCAASGITFDYYAMGWYRQAPGKERELVAAISWGGGSTYYADSVKGRFTISRDNAKNTVYLQMNSLKPEDTAVYYCAADIVSSPSSYVPPGDYWGQGSQVTVSS”, the “polyreactivity (PSR sort gate)” value is listed as “low polyreactivity”. As for “QVQLVESGGGLVQAGGSLRLSCAASGITFDYYDMGWYRQAPGKERELVATITSDGSTTYADSVKGRFTISRDNAKNTVYLQMNSLKPEDTAVYYCAAALHIYSYFYITYDYWGQGTQVTVSS”, the “polyreactivity (PSR sort gate)” value was “high polyreactivity”.

On to “QVQLVESGGGLVQAGGSLRLSCAASGITFEGYAMGWFRPAPGKERELVAAIRSSGTSTYYADSVKGRFTISRDNAKTTVYLQMNSQKPVDTAVYYCNRARSSSRYDYWGQGTQVTVSS”, for which the “polyreactivity (PSR sort gate)” value is listed as “low polyreactivity”.

For the sequence “QVQLVESGGGLVQAGGSLRLSCAASGITFEGYAMGWYRQAPGKEREFVAAITGSGSTTYYADSVKGRFTITRDNAKNTVYLQMNSLKPEDTAVYYCVAYVGSTYSAPEYYWGQGTQVTVSS”, the “polyreactivity (PSR sort gate)” value is “low polyreactivity”. Take “QVQLVESGGGLVQAGGSLRLSCAASGITFEGYAMGWYRQAPGNEREFVAAITSTGTSTRYADSVKGRFTISRDNAKNTVYLQMNSLKPEDTAVYYCAATSHFLSWHLRYYWGQGTQVTVSS”: the “polyreactivity (PSR sort gate)” value is recorded as “high polyreactivity”. Consider “QVQLVESGGGLVQAGGSLRLSCAASGITFEIYAMGWYRQAPGKERELVAAITWRGGSTYYADSVKGRFTISRDNAKNTVYLQMNSLKPDDTAVYYCAAEQYSGEDWGDYWGQGTQVTVSS”, for which the “polyreactivity (PSR sort gate)” value is on record as “low polyreactivity”. For “QVQLVESGGGLVQAGGSLRLSCAASGITFEPYAMGWYRQAPGKEREFVADITWSGGSTYYADSVKGRFTISRDNAMNTGYLQMNSLKPEDTAVYYCAADGWTSYWSDYWGQGTQVTVSS”, the “polyreactivity (PSR sort gate)” value is recorded as “low polyreactivity”. For the sequence “QVQLVESGGGLVQAGGSLRLSCAASGITFFAYAMGWYRQAPGKERELVAAISTDGGSTYYADSVKGRFTISRDNAKNTVYLQMNSLKPEDTAVYYCAAKQRYVRTRGMDYWGQGTQVTVSS”, the “polyreactivity (PSR sort gate)” value is “high polyreactivity”.

For the sequence “QVQLVESGGGLVQAGGSLRLSCAASGITFFDNAMGWYRQAPGKERELVATITGGGASTYYADSVKGRFTISRDNAKNTVYLLMNSLKPEDTAVYYCAADYVDGVYLEYGYWGQGTQVTVSS”, the “polyreactivity (PSR sort gate)” value is listed as “low polyreactivity”.

Consider “QVQLVESGGGLVQAGGSLRLSCAASGITFFRYAMGWYRQAPGKERELVAAITTSGSSTFYADSVKGRFTISRDNAKNTVYLLMNSLKPEDTAVYYCAAVFRWARLYEYDYWGQGTQVTVSS”, for which the “polyreactivity (PSR sort gate)” value was “high polyreactivity”. As to “QVQLVESGGGLVQAGGSLRLSCAASGITFFRYTMGWYRQAPGKEREFVADISRSGDTTYYADSVKGRFTISRDNAKNSVYLQMNSLKPEDTAVYYCARLTRSGEYGYWGQGTQVTVSS”, the “polyreactivity (PSR sort gate)” value is given as “high polyreactivity”. Take “QVQLVESGGGLVQAGGSLRLSCAASGITFFWYAMGWYRQAPGKERELVARITSDGSTSYADSVKGRFTISRDNAKNTVYLQMNSLKREDTAVYYCAADYSYIYQSWSGYENDYWGQGTQVTVSS”: the “polyreactivity (PSR sort gate)” value is “high polyreactivity”. On to “QVQLVESGGGLVQAGGSLRLSCAASGITFGDNAMGWYRQAPGKERELVAAITLSDVDTYADSVKGRFTISRDNAKNTVYLQMNSLKPEDTAVYYCAADYDFFSSKRFDYWGQGTQVTVSS”, for which the “polyreactivity (PSR sort gate)” value is listed as “low polyreactivity”. For the sequence “QVQLVESGGGLVQAGGSLRLSCAASGITFGFNAMGWYRQAPGKERELVAAITWSVGRTYYADSVKGRFTISRDTAKNTVYLQMNSLKPEDTAVYYCAKDFEAGDDYFAYDYWGQGTQVTVSS”, the “polyreactivity (PSR sort gate)” value is given as “low polyreactivity”. Take “QVQLVESGGGLVQAGGSLRLSCAASGITFGGNAMGWYRQATGKERELVAGINRSGVSTYYADSVKGRFTISRDNAKNTVYFQMNSLKPEDTAVYYCATGYFSWIYGYYYWGQGTQVTVSS”: the “polyreactivity (PSR sort gate)” value is “high polyreactivity”.

For “QVQLVESGGGLVQAGGSLRLSCAASGITFGGYAMGWYRQAPGKERELVASIRSGSTTNYADSVKGRFTISRDNAKNTVYLQMNSLKPEDTAVYYCAARNFRNRYGYWGQGTQVTVSS”, the “polyreactivity (PSR sort gate)” value is given as “high polyreactivity”. For “QVQLVESGGGLVQAGGSLRLSCAASGITFGIYVMGCYRQAPGKEREFVATMSRSDDNTYYADSVKGRFTISRDNAKNTVYLQRNSLKPEDTAVYYCAADGVISAWYSSRDDYWGQGTQVTVSS”, the “polyreactivity (PSR sort gate)” value is “low polyreactivity”. Take “QVQLVESGGGLVQAGGSLRLSCAASGITFGNYAMYWVRQAPGKERELVAAINYSRGSTYYADSVKGRFTISRDNAKNTVYLQMNSLKPQDTAVYYCAADTYPASYDYWGQGTQVTVSS”: the “polyreactivity (PSR sort gate)” value was “high polyreactivity”.

Take “QVQLVESGGGLVQAGGSLRLSCAASGITFGRNTMGWYRQAPGKERELVAAIDSGGNTYADSVKGRFTISRDNAKNTVFLQMNSLKPEDTAVYYCAVDGGEFSSYGYWGQGTQVTVSS”: the “polyreactivity (PSR sort gate)” value was “low polyreactivity”.
